Experimental data: patent US20210355206A1 (Novartis, published 2021)
Substitutions are numbered along the chain they refer to. Each block holds one binder with its values, some of them ahead of it.

Tests used:
Mouse Epo [1] = molecular target: T1, Mouse Epo (mouse, UniProt P07321 27-192); test: SET
T1 sequence: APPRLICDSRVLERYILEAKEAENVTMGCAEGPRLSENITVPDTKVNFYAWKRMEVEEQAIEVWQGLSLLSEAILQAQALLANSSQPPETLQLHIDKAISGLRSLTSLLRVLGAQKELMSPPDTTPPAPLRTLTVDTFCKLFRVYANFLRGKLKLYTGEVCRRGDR
Description: (§1) In SET, a constant amount of antibody is incubated with different concentrations of antigen until equilibrium is reached. The concentration of free antibody in the equilibrated solution is determined by applying the solution on an antigen coated MSD™ plate (Meso Scale Discovery™) followed by incubation with an ECL-labeled secondary antibody and measurement of signal intensity. […] If a sufficient number of antigen concentrations in a matching range are available, the titration curve allows for a reasonable determination of the affinity, using the appropriate fit model.
(§2) Streptavidin-coated standard MSD plates (Meso-Scale Discovery, 384-well: MSD cat #L11 SA) were blocked with 25 μl incubation buffer at RT for 1 hr. […] Plates were washed 3× in TBST buffer. […] Plates were washed 3× in TBST buffer. 25 μl detection antibody was added (Anti-Human (Goat) Sulfo-TAG, 1:1000 in incubation buffer, MSD cat #R32AJ-1), and incubated at RT for 60 min. Plates were washed 3× in wash buffer, and 50 μl of 1× MSD Read buffer T was added (with surfactant, MSD cat #R92TC-1). Plates were read on a MSD Spector Imager 6000.

Rat Epo [2] = molecular target: T2, Rat Epo (rat, UniProt P29676 27-192); test: SET
T2 sequence: T1 sequence with E55K, I61V, L81Q, T90S, T124A, P126Q, P127A, V135A, A146S, V160A
Description: as §1, §2

Mouse Epo [3] = molecular target: T1, Mouse Epo; test: SPR (Biacore T200), Fab captured by anti-human Fab, Epo as analyte, 25 C
Description: (§3) Three flow cells were utilized for the method run. […] Both capture and binding steps were carried out on flow cells 2-4.
(§4) The resulting signals were adjusted by double referencing, thus subtracting the refraction index values from the reference flow cell and the binding step with no analyte. Data was collected at 10 Hz and analyzed using the Biacore® T100 Evaluation Software Version 1.1 (GE Healthcare). This program uses a global fitting analysis method for the determination of rate and affinity constants for each interaction.

Rat Epo [4] = molecular target: T2, Rat Epo; test: as above
Description: as §3, §4

Rabbit Epo [5] = molecular target: T3, Rabbit Epo (rabbit, UniProt Q9GKA2 29-195, limits assumed); test: solution equilibrium titration (SET), MSD ECL read-out, Fab with Epo titration
T3 sequence: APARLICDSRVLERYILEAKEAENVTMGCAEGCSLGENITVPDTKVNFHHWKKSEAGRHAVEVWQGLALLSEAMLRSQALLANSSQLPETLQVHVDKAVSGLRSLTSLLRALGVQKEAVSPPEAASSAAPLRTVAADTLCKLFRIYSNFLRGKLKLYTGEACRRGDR
Description: as §1, §2

Mouse Epo [6] = molecular target: T1, Mouse Epo; test: as above
Description: as §1, §2

Rat Epo [7] = molecular target: T2, Rat Epo; test: as above
Description: as §1, §2

Rabbit Epo [8] = molecular target: T3, Rabbit Epo; test: SPR (Biacore T200), Fab captured by anti-human Fab, Epo as analyte, 25 C
Description: as §3, §4

Rabbit Epo [9] = molecular target: T3, Rabbit Epo; test: SPR (Biacore T200), Fab captured by anti-human Fab, Epo as analyte, 25 C; single datapoint
Description: as §3, §4

Mouse Epo [10] = molecular target: T1, Mouse Epo; test: as above
Description: as §3, §4

Rat Epo [11] = molecular target: T2, Rat Epo; test: as above
Description: as §3, §4

Mouse Epo [12] = molecular target: T1, Mouse Epo; test: solution equilibrium titration (SET), MSD ECL read-out, Fab with Epo titration; single datapoint
Description: as §1, §2

Rat Epo [13] = molecular target: T2, Rat Epo; test: as above
Description: as §1, §2

Rat Epo [14] = molecular target: T2, Rat Epo; test: SET; rat Epo
Description: as §1, §2

Mouse Epo [15] = molecular target: T1, Mouse Epo; test: SET; mouse Epo
Description: as §1, §2

B1: NVS4 (Fab, V domains shown)
VH: QVQLVQSGAEVKKPGASVKVSCKASGYTFTSYYMSWVRQAPGQGLEWMGWINPLKGNTNYAQKFQGRVTMTRDTSISTAYMELSRLRSEDTAVYYCAREGMYFDIWGQGTLVTVSS
VL: SYELTQPLSVSVALGQTARITCSGDSIGDKYVYWYQQKPGQAPVLVIYDTNKRPSGIPERFSGSNSGNTATLTISRAQAGDEADYYCQSWDLDFNTYVFGGGTKLTVLG
notes: Human FabCys format; also called Fab NVS4; derived from initial antibody 11317
Kd (Mouse Epo [1]): < 0.01 nM | Kd (Rat Epo [2]): < 0.01 nM | Kd (Mouse Epo [3]): 0.0305 nM | Kd (Rat Epo [4]): 0.0344 nM | Kd (Rabbit Epo [5]): 28.7 nM | Kd (Mouse Epo [6]): 7.8 pM | Kd (Rat Epo [7]): 0.0127 nM

B3: NVS1 (Fab, V domains shown)
VH: QVQLVQSGAEVKKPGSSVKVSCKASGGTFRSYAISWVRQAPGQGLEWMGGIDPISGFADYAQKFQGRVTITADESTSTAYMELSSLRSEDTAVYYCARELYYPGTWMAVMAYWGRGTLVTVSS
VL: SYVLTQPPSVSVAPGKTARITCSGDNIPEYYVHWYQQKPGQAPVLVIYRDNERPSGIPERFSGSNSGNTATLTISRVEAGDEADYYCQVFDESSWHWVFGGGTKLTVLG
notes: Human FabCys format (VH-CH1 ending EPKSC, lambda light chain); also called Fab NVS1; derived from initial antibody 11319
Kd (Rabbit Epo [9]): 0.661 nM | Kd (Mouse Epo [10]): 0.022 nM | Kd (Rat Epo [11]): 0.041 nM | Kd (Mouse Epo [12]): 0.0161 nM | Kd (Rat Epo [13]): 5.4 pM

The remaining lines, values ahead:

Kd (Rabbit Epo [8]): 0.674 nM | Kd (Mouse Epo [3]): 0.001 nM | Kd (Rat Epo [4]): 0.038 nM | Kd (Rabbit Epo [5]): 0.0399 nM | Kd (Mouse Epo [6]): 2.5 pM | Kd (Rat Epo [7]): 0.0012 nM
B2: NVS3 (Fab, V domains shown)
VH: QVQLQQSGPGLVKPSQTLSLTCAISGDSVSSNTAAWNWIRQSPSRGLEWLGVIYYRSKWYNDYAVSVKSRITINPDTSKNQFSLQLNSVTPEDTAVYYCARSVPGGDPGLEHAFAYWGRGTLVTVSS
VL: SYVLTQPPSVSVAPGKTARITCSGDNLGTYYVEWYQQKPGQAPVLVIYDDSDRPSGIPERFSGSNSGNTATLTISRVEAGDEADYYCASFASWSDSVFGGGTKLTVLG
notes: Human FabCys format; also called Fab NVS3; derived from initial antibody 11380

Kd (Rat Epo [14]): < 0.02 nM | Kd (Mouse Epo [15]): < 0.05 nM | Kd (Rabbit Epo [8]): 5.16 nM | Kd (Mouse Epo [3]): 0.0449 nM | Kd (Rat Epo [4]): 0.0566 nM | Kd (Rabbit Epo [5]): 3.86 nM | Kd (Mouse Epo [6]): 37 pM | Kd (Rat Epo [7]): 0.0127 nM
B4: NVS2 (Fab, V domains shown)
VH: EVQLVQSGAEVKKPGESLKISCKGSGYSFTSYWIGWVRQMPGKGLEWMGWIDPYRSEIRYSPSFQGQVTISADKSISTAYLQWSSLKASDTAMYYCARVSSEPFDSWGQGTLVTVSS
VL: SYVLTQPPSVSVAPGKTARITCSGDKLGDHYAYWYQQKPGQAPVLVIYDDSKRPSGIPERFSGSNSGNTATLTISRVEAGDEADYYCATWTFEGDYVFGGGTKLTVLG
notes: Human FabCys format; also called Fab NVS2; anti-EPO Fab
